*1 amine or outer side, *2 acyl side, *3 side chain or, on linkers, in order; H or OH if unused. Side-chain parts run from the residue outwards. The star is where a group is joined. C18 diacid = O=C(O)CCCCCCCCCCCCCCCCC(=O)*; γGlu = O=C(O)[C@H](CCC(=O)[*:2])N[*:1]; Isovaleryl = CC(C)CC(=O)*; Ahx = NCCCCCC(=O)O
Molecular target: T1, human NPY2 receptor (human, UniProt P49146 1-381)
T1 construct: whole, on cells; also called hNPY2-R; hNPY2R
T1 sequence (looked up): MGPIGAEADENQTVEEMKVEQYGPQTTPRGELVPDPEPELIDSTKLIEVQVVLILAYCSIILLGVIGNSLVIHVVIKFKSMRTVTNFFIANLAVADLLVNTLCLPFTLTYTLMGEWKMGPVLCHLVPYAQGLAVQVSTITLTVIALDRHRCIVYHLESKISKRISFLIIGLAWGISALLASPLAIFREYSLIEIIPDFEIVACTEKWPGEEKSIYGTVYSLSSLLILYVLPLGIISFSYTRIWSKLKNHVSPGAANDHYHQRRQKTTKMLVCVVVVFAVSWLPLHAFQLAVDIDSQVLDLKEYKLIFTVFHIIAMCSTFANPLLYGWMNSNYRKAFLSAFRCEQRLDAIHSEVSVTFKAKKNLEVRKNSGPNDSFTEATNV
Test: RLB: displacement of 125I-PYY(1-36) from hNPY2R membranes
Description: The filtration RLB assay was carried out in 96-well plates in a final volume of 100 μl per well. Freeze-dried test peptides were dissolved in 100% dimethyl sulfoxide (DMSO) to stock solutions of 1 mM and serial dilutions were performed in assay buffer (50 mM HEPES, 5 mM MgCl₂, 1 mM CaCl₂), pH 7.4) containing 0.2% ovalbumin. […] Next, 80 μL membranes (HTS066M, ChemiSCREEN™ Human Neuropeptide Y2 Receptor Membrane Preparation, CHEMICON) were added to each well to give a final protein concentration of 0.5 μg/well. The plates were sealed and incubated at room temperature for 2 hours in a plate shaker set at 400 rpm. The incubation was stopped by vacuum filtration onto 0.5% polyethylene amine (PEI) presoaked GF/C filters using a 96-well FilterMate™ harvester (Perkin Elmer) followed by four washes with 300 μl/well ice-cold wash buffer (50 mM HEPES, 500 mM NaCl, pH7.4). Filter plates were then dried for 60 min at room temperature and the bottom of the plates was sealed with backing tape UniFilter-96. Finally, 50 μl/well scintillation counter cocktail (Microscint20, Packard) was added and the radioactivity was counted in the Packard TopCount NXT scintillation counter. IC₅₀ values (the half maximal inhibitory concentration of the agonist) were calculated by nonlinear regression analysis of sigmoidal dose-response curves.

B1: Compound 173 (peptide)
peptide: Isovaleryl-APEK([Ahx-γGlu-C18 diacid])PEEDATPEELQRYYVSLRHYYNWLTRQRY-NH2
SMILES: CC(C)CC(=O)N[C@@H](C)C(=O)N1CCC[C@H]1C(=O)N[C@@H](CCC(=O)O)C(=O)N[C@@H](CCCCNC(=O)CCCCCNC(=O)CC[C@H](NC(=O)CCCCCCCCCCCCCCCCC(=O)O)C(=O)O)C(=O)N1CCC[C@H]1C(=O)N[C@@H](CCC(=O)O)C(=O)N[C@@H](CCC(=O)O)C(=O)N[C@@H](CC(=O)O)C(=O)N[C@@H](C)C(=O)N[C@H](C(=O)N1CCC[C@H]1C(=O)N[C@@H](CCC(=O)O)C(=O)N[C@@H](CCC(=O)O)C(=O)N[C@@H](CC(C)C)C(=O)N[C@@H](CCC(N)=O)C(=O)N[C@@H](CCCNC(=N)N)C(=O)N[C@@H](Cc1ccc(O)cc1)C(=O)N[C@@H](Cc1ccc(O)cc1)C(=O)N[C@H](C(=O)N[C@@H](CO)C(=O)N[C@@H](CC(C)C)C(=O)N[C@@H](CCCNC(=N)N)C(=O)N[C@@H](Cc1c[nH]cn1)C(=O)N[C@@H](Cc1ccc(O)cc1)C(=O)N[C@@H](Cc1ccc(O)cc1)C(=O)N[C@@H](CC(N)=O)C(=O)N[C@@H](Cc1c[nH]c2ccccc12)C(=O)N[C@@H](CC(C)C)C(=O)N[C@H](C(=O)N[C@@H](CCCNC(=N)N)C(=O)N[C@@H](CCC(N)=O)C(=O)N[C@@H](CCCNC(=N)N)C(=O)N[C@@H](Cc1ccc(O)cc1)C(N)=O)[C@@H](C)O)C(C)C)[C@@H](C)O
- Ki: 4.07 nM

B2: Compound 1 (peptide)
peptide: Isovaleryl-APEK([Ahx-γGlu-C18 diacid])PEADAEPEELQRYYIALRHYYNWLTRQRY-NH2
SMILES: CC[C@H](C)[C@H](NC(=O)[C@H](Cc1ccc(O)cc1)NC(=O)[C@H](Cc1ccc(O)cc1)NC(=O)[C@H](CCCNC(=N)N)NC(=O)[C@H](CCC(N)=O)NC(=O)[C@H](CC(C)C)NC(=O)[C@H](CCC(=O)O)NC(=O)[C@H](CCC(=O)O)NC(=O)[C@@H]1CCCN1C(=O)[C@H](CCC(=O)O)NC(=O)[C@H](C)NC(=O)[C@H](CC(=O)O)NC(=O)[C@H](C)NC(=O)[C@H](CCC(=O)O)NC(=O)[C@@H]1CCCN1C(=O)[C@H](CCCCNC(=O)CCCCCNC(=O)CC[C@H](NC(=O)CCCCCCCCCCCCCCCCC(=O)O)C(=O)O)NC(=O)[C@H](CCC(=O)O)NC(=O)[C@@H]1CCCN1C(=O)[C@H](C)NC(=O)CC(C)C)C(=O)N[C@@H](C)C(=O)N[C@@H](CC(C)C)C(=O)N[C@@H](CCCNC(=N)N)C(=O)N[C@@H](Cc1c[nH]cn1)C(=O)N[C@@H](Cc1ccc(O)cc1)C(=O)N[C@@H](Cc1ccc(O)cc1)C(=O)N[C@@H](CC(N)=O)C(=O)N[C@@H](Cc1c[nH]c2ccccc12)C(=O)N[C@@H](CC(C)C)C(=O)N[C@H](C(=O)N[C@@H](CCCNC(=N)N)C(=O)N[C@@H](CCC(N)=O)C(=O)N[C@@H](CCCNC(=N)N)C(=O)N[C@@H](Cc1ccc(O)cc1)C(N)=O)[C@@H](C)O
- Ki: 2.05 nM

B3: Compound 3 (peptide)
peptide: Isovaleryl-APAK([Ahx-γGlu-C18 diacid])PEADAEPEELQRYYVALRHYYNWLTRQRY-NH2
SMILES: CC(C)CC(=O)N[C@@H](C)C(=O)N1CCC[C@H]1C(=O)N[C@@H](C)C(=O)N[C@@H](CCCCNC(=O)CCCCCNC(=O)CC[C@H](NC(=O)CCCCCCCCCCCCCCCCC(=O)O)C(=O)O)C(=O)N1CCC[C@H]1C(=O)N[C@@H](CCC(=O)O)C(=O)N[C@@H](C)C(=O)N[C@@H](CC(=O)O)C(=O)N[C@@H](C)C(=O)N[C@@H](CCC(=O)O)C(=O)N1CCC[C@H]1C(=O)N[C@@H](CCC(=O)O)C(=O)N[C@@H](CCC(=O)O)C(=O)N[C@@H](CC(C)C)C(=O)N[C@@H](CCC(N)=O)C(=O)N[C@@H](CCCNC(=N)N)C(=O)N[C@@H](Cc1ccc(O)cc1)C(=O)N[C@@H](Cc1ccc(O)cc1)C(=O)N[C@H](C(=O)N[C@@H](C)C(=O)N[C@@H](CC(C)C)C(=O)N[C@@H](CCCNC(=N)N)C(=O)N[C@@H](Cc1c[nH]cn1)C(=O)N[C@@H](Cc1ccc(O)cc1)C(=O)N[C@@H](Cc1ccc(O)cc1)C(=O)N[C@@H](CC(N)=O)C(=O)N[C@@H](Cc1c[nH]c2ccccc12)C(=O)N[C@@H](CC(C)C)C(=O)N[C@H](C(=O)N[C@@H](CCCNC(=N)N)C(=O)N[C@@H](CCC(N)=O)C(=O)N[C@@H](CCCNC(=N)N)C(=O)N[C@@H](Cc1ccc(O)cc1)C(N)=O)[C@@H](C)O)C(C)C
- Ki: 1.57 nM

B4: Compound 4 (peptide)
peptide: Isovaleryl-APEK([Ahx-γGlu-C18 diacid])PEEAAEPEELQRYYVSLRHYYNWLTRQRY-NH2
SMILES: CC(C)CC(=O)N[C@@H](C)C(=O)N1CCC[C@H]1C(=O)N[C@@H](CCC(=O)O)C(=O)N[C@@H](CCCCNC(=O)CCCCCNC(=O)CC[C@H](NC(=O)CCCCCCCCCCCCCCCCC(=O)O)C(=O)O)C(=O)N1CCC[C@H]1C(=O)N[C@@H](CCC(=O)O)C(=O)N[C@@H](CCC(=O)O)C(=O)N[C@@H](C)C(=O)N[C@@H](C)C(=O)N[C@@H](CCC(=O)O)C(=O)N1CCC[C@H]1C(=O)N[C@@H](CCC(=O)O)C(=O)N[C@@H](CCC(=O)O)C(=O)N[C@@H](CC(C)C)C(=O)N[C@@H](CCC(N)=O)C(=O)N[C@@H](CCCNC(=N)N)C(=O)N[C@@H](Cc1ccc(O)cc1)C(=O)N[C@@H](Cc1ccc(O)cc1)C(=O)N[C@H](C(=O)N[C@@H](CO)C(=O)N[C@@H](CC(C)C)C(=O)N[C@@H](CCCNC(=N)N)C(=O)N[C@@H](Cc1c[nH]cn1)C(=O)N[C@@H](Cc1ccc(O)cc1)C(=O)N[C@@H](Cc1ccc(O)cc1)C(=O)N[C@@H](CC(N)=O)C(=O)N[C@@H](Cc1c[nH]c2ccccc12)C(=O)N[C@@H](CC(C)C)C(=O)N[C@H](C(=O)N[C@@H](CCCNC(=N)N)C(=O)N[C@@H](CCC(N)=O)C(=O)N[C@@H](CCCNC(=N)N)C(=O)N[C@@H](Cc1ccc(O)cc1)C(N)=O)[C@@H](C)O)C(C)C
- Ki: 4.65 nM

B5: Compound 5 (peptide)
peptide: Isovaleryl-APAK([Ahx-γGlu-C18 diacid])PEEDASPEELQRQYVSLRHYYNWLTRQRY-NH2
SMILES: CC(C)CC(=O)N[C@@H](C)C(=O)N1CCC[C@H]1C(=O)N[C@@H](C)C(=O)N[C@@H](CCCCNC(=O)CCCCCNC(=O)CC[C@H](NC(=O)CCCCCCCCCCCCCCCCC(=O)O)C(=O)O)C(=O)N1CCC[C@H]1C(=O)N[C@@H](CCC(=O)O)C(=O)N[C@@H](CCC(=O)O)C(=O)N[C@@H](CC(=O)O)C(=O)N[C@@H](C)C(=O)N[C@@H](CO)C(=O)N1CCC[C@H]1C(=O)N[C@@H](CCC(=O)O)C(=O)N[C@@H](CCC(=O)O)C(=O)N[C@@H](CC(C)C)C(=O)N[C@@H](CCC(N)=O)C(=O)N[C@@H](CCCNC(=N)N)C(=O)N[C@@H](CCC(N)=O)C(=O)N[C@@H](Cc1ccc(O)cc1)C(=O)N[C@H](C(=O)N[C@@H](CO)C(=O)N[C@@H](CC(C)C)C(=O)N[C@@H](CCCNC(=N)N)C(=O)N[C@@H](Cc1c[nH]cn1)C(=O)N[C@@H](Cc1ccc(O)cc1)C(=O)N[C@@H](Cc1ccc(O)cc1)C(=O)N[C@@H](CC(N)=O)C(=O)N[C@@H](Cc1c[nH]c2ccccc12)C(=O)N[C@@H](CC(C)C)C(=O)N[C@H](C(=O)N[C@@H](CCCNC(=N)N)C(=O)N[C@@H](CCC(N)=O)C(=O)N[C@@H](CCCNC(=N)N)C(=O)N[C@@H](Cc1ccc(O)cc1)C(N)=O)[C@@H](C)O)C(C)C
- Ki: 12.7 nM

B6: Compound 8 (peptide)
peptide: Isovaleryl-APEK([Ahx-γGlu-C18 diacid])PEEDETPEELQRYYVSLRHYYNWLTRQRY-NH2
SMILES: CC(C)CC(=O)N[C@@H](C)C(=O)N1CCC[C@H]1C(=O)N[C@@H](CCC(=O)O)C(=O)N[C@@H](CCCCNC(=O)CCCCCNC(=O)CC[C@H](NC(=O)CCCCCCCCCCCCCCCCC(=O)O)C(=O)O)C(=O)N1CCC[C@H]1C(=O)N[C@@H](CCC(=O)O)C(=O)N[C@@H](CCC(=O)O)C(=O)N[C@@H](CC(=O)O)C(=O)N[C@@H](CCC(=O)O)C(=O)N[C@H](C(=O)N1CCC[C@H]1C(=O)N[C@@H](CCC(=O)O)C(=O)N[C@@H](CCC(=O)O)C(=O)N[C@@H](CC(C)C)C(=O)N[C@@H](CCC(N)=O)C(=O)N[C@@H](CCCNC(=N)N)C(=O)N[C@@H](Cc1ccc(O)cc1)C(=O)N[C@@H](Cc1ccc(O)cc1)C(=O)N[C@H](C(=O)N[C@@H](CO)C(=O)N[C@@H](CC(C)C)C(=O)N[C@@H](CCCNC(=N)N)C(=O)N[C@@H](Cc1c[nH]cn1)C(=O)N[C@@H](Cc1ccc(O)cc1)C(=O)N[C@@H](Cc1ccc(O)cc1)C(=O)N[C@@H](CC(N)=O)C(=O)N[C@@H](Cc1c[nH]c2ccccc12)C(=O)N[C@@H](CC(C)C)C(=O)N[C@H](C(=O)N[C@@H](CCCNC(=N)N)C(=O)N[C@@H](CCC(N)=O)C(=O)N[C@@H](CCCNC(=N)N)C(=O)N[C@@H](Cc1ccc(O)cc1)C(N)=O)[C@@H](C)O)C(C)C)[C@@H](C)O
- Ki: 106 nM

Source: patent publication US20260015399A1 (Boehringer Ingelheim, published 2026)
